Assay results as given in article PMC10388305, “Synthesis and Evaluation of a Monomethyl Auristatin E—Integrin αvβ6 Binding Peptide–Drug Conjugate for Tumor Targeted Drug Delivery” (Journal of Medicinal Chemistry, 2023).
Where two headings read alike, the source gives them in different places.

What was measured:
[1] = Biodistribution, BxPC-3 pancreatic xenograft tumor mouse model; format: in vivo, mice; conditions: female, athymic nude, iv, total radioactivity, γ-counter, mean ± SD; for tissue uptake at 4 h / tissue uptake at 24 h / tissue uptake at 48 h: i.v.
Method: All animal procedures conformed to the Animal Welfare Act and were approved by the University of California Davis Institutional Animal Care and Use Committee. All mice used for in vivo work were female athymic nude mice (6–8 weeks old) purchased from Charles River Laboratories (Wilmington, MA). For PET imaging and biodistribution studies, female athymic nude mice (6–8 weeks old) were injected subcutaneously with 3 × 10^6 DX3puro and 3 × 10^6 DX3puroβ6 cells in serum free DMEM on the right and left flank, respectively, or with 5 × 10^6 BxPC-3 cells in serum free RPMI 1640/Matrigel (1/1 v/v). Studies commenced once tumors reached a maximum diameter of ∼0.5 cm, approximately 3 weeks after inoculation. Food and water were available ad libitum. [^64Cu]PDC-1 was formulated in isotonic 0.9% saline to pH = 7.2 and administered intravenously (i.v.) via a catheter into the tail vein.
Aliquots of the formulated [^64Cu]PDC-1 in isotonic 0.9% saline (4.81–5.74 MBq, 1.7–2.1 μg, 0.26–0.31 nmol, 100 μL, pH 7.2) were injected i.v. as described above. Following the conscious uptake period, the mice were anesthetized (5% isoflurane), euthanized, and dissected (n ≥ 3/model/time point [4, 24, and 48 h]; the 48 h time point also included the imaging animals sacrificed after the PET scans). Tissues were collected, washed, weighed, and radioactivity measured in a γ-counter. Calibrated, decay-corrected radioactivity was expressed as the percentage of injected dose per gram of tissue (% ID/g). Data are reported as mean ± SD. […] For in vivo blocking studies, DOTA-2 (50 mg/kg, 205 nmol, 1.4 mg in 100 μL 0.9% saline) was injected i.v. into two animals/tumor model 10 min prior to [^64Cu]PDC-1. The animals were sacrificed after 4 h, tissues collected, washed, weighed, and radioactivity measured in a γ-counter.
Biodistribution data of [64Cu]PDC-1 in BxPC-3 tumor model.
Table S4. Biodistribution of [ 64Cu]PDC-1 in mice bearing a BxPC-3 xenograft tumor. Tissue uptake is
expressed as the mean of the percentage of injected dose per gram of tissue ± standard deviation (n = 4/
time point; n = 6 at 48 h); an = 3, bn = 5.

[2] = Serum stability in mouse serum; format: in vitro ADME; conditions: 37 °C, ethanol precipitation, radio RP-HPLC
Method: The serum stability of [^64Cu]PDC-1 was measured in both human and mouse serum at 37 °C at 1, 4, and 24 h.
Mouse serum or human serum (0.5 mL) was combined with an aliquot of [^64Cu]PDC-1 (≤25 μL, 3.9–4.7 MBq) and incubated at 37 °C. At each time point (1, 4, and 24 h), an aliquot (50–200 μL) was taken, proteins precipitated with absolute ethanol and removed by centrifugation at 1500g for 4 min. The ethanol solution was diluted with water (1 mL) and analyzed by RP-HPLC.

CC[C@H](C)[C@@H]([C@@H](CC(=O)N1CCC[C@H]1[C@H](OC)[C@@H](C)C(=O)N[C@H](C)[C@@H](O)c1ccccc1)OC)N(C)C(=O)[C@@H](NC(=O)[C@H](C(C)C)N(C)C(=O)OCc1ccc(NC(=O)[C@H](CCCNC(N)=O)NC(=O)[C@@H](NC(=O)CCOCCOCCNC(=O)CCN2C(=O)CC(SC[C@H](NC(=O)CN3CCN(CC(=O)O)CCN(CC(=O)O)CCN(CC(=O)O)CC3)C(=O)NCCOCCOCCOCCOCCOCCOCCOCCOCCOCCOCCOCCOCCOCCOCCOCCOCCOCCOCCOCCOCCOCCOCCOCCOCCOCCOCCOCCOCCC(=O)N[C@@H](CC(N)=O)C(=O)N[C@@H](C)C(=O)N[C@H](C(=O)N3CCC[C@H]3C(=O)N[C@@H](CC(N)=O)C(=O)N[C@@H](CC(C)C)C(=O)N[C@@H](CCCNC(=N)N)C(=O)NCC(=O)N[C@@H](CC(=O)O)C(=O)N[C@@H](CC(C)C)C(=O)N[C@@H](CCC(N)=O)C(=O)N[C@H](C(=O)N[C@@H](CC(C)C)C(=O)N[C@@H](C)C(=O)N[C@@H](CCC(N)=O)C(=O)N[C@@H](CCCNC(=N)N)C(=O)N[C@H](C(=O)N[C@@H](C)C(=O)N[C@@H](CCCNC(=N)N)C(=O)N[C@H](C(=O)NCCOCCOCCOCCOCCOCCOCCOCCOCCOCCOCCOCCOCCOCCOCCOCCOCCOCCOCCOCCOCCOCCOCCOCCOCCOCCOCCOCCOCCC(N)=O)[C@@H](C)O)C(C)C)C(C)C)C(C)C)C2=O)C(C)C)cc1)C(C)C (stereo partly drawn) [[^64Cu]PDC-1, metal not drawn]
tissue uptake at 4 h ([1]; BxPC-3 (αvβ6 +) tumor, 4 h p.i., n = 3, read-out: BxPC-3 (αvβ6 +) tumor uptake): 4.61 ± 1.44 %ID/g
tissue uptake at 24 h ([1]; BxPC-3 (αvβ6 +) tumor, 24 h p.i., n = 4, read-out: BxPC-3 (αvβ6 +) tumor uptake): 3.73 ± 0.44 %ID/g
tissue uptake at 48 h ([1]; BxPC-3 (αvβ6 +) tumor, 48 h p.i., n = 6, read-out: BxPC-3 (αvβ6 +) tumor uptake): 2.93 ± 0.8 %ID/g
tissue uptake at 4 h ([1]; bladder, 4 h p.i., n = 4, read-out: Bladder uptake): 2.06 ± 0.2 %ID/g
tissue uptake at 24 h ([1]; bladder, 24 h p.i., n = 4, read-out: Bladder uptake): 1.84 ± 0.45 %ID/g
tissue uptake at 48 h ([1]; bladder, 48 h p.i., n = 6, read-out: Bladder uptake): 1.28 ± 0.46 %ID/g
tissue uptake at 4 h ([1]; blood, 4 h p.i., n = 4, read-out: Blood uptake): 0.13 ± 0.02 %ID/g
tissue uptake at 24 h ([1]; blood, 24 h p.i., n = 4, read-out: Blood uptake): 0.31 ± 0.04 %ID/g
tissue uptake at 48 h ([1]; blood, 48 h p.i., n = 6, read-out: Blood uptake): 0.28 ± 0.04 %ID/g
tissue uptake at 4 h ([1]; bone, 4 h p.i., n = 4, read-out: Bone uptake): 0.36 ± 0.1 %ID/g
tissue uptake at 24 h ([1]; bone, 24 h p.i., n = 4, read-out: Bone uptake): 0.43 ± 0.03 %ID/g
tissue uptake at 48 h ([1]; bone, 48 h p.i., n = 6, read-out: Bone uptake): 0.23 ± 0.11 %ID/g
tissue uptake at 4 h ([1]; brain, 4 h p.i., n = 4, read-out: Brain uptake): 0.04 %ID/g
tissue uptake at 24 h ([1]; brain, 24 h p.i., n = 4, read-out: Brain uptake): 0.08 ± 0.01 %ID/g
tissue uptake at 48 h ([1]; brain, 48 h p.i., n = 6, read-out: Brain uptake): 0.08 ± 0.03 %ID/g
tissue uptake at 4 h ([1]; gall bladder, 4 h p.i., n = 4, read-out: Gall bladder uptake): 3.99 ± 1.49 %ID/g
tissue uptake at 24 h ([1]; gall bladder, 24 h p.i., n = 4, read-out: Gall bladder uptake): 2.88 ± 1.31 %ID/g
tissue uptake at 48 h ([1]; gall bladder, 48 h p.i., n = 6, read-out: Gall bladder uptake): 1.46 ± 1.09 %ID/g
tissue uptake at 4 h ([1]; heart, 4 h p.i., n = 4, read-out: Heart uptake): 0.79 ± 0.11 %ID/g
tissue uptake at 24 h ([1]; heart, 24 h p.i., n = 4, read-out: Heart uptake): 0.89 ± 0.13 %ID/g
tissue uptake at 48 h ([1]; heart, 48 h p.i., n = 6, read-out: Heart uptake): 0.79 ± 0.07 %ID/g
tissue uptake at 4 h ([1]; kidney, 4 h p.i., n = 4, read-out: Kidney uptake): 50.4 ± 3.08 %ID/g
tissue uptake at 24 h ([1]; kidney, 24 h p.i., n = 4, read-out: Kidney uptake): 41.6 ± 11.8 %ID/g
tissue uptake at 48 h ([1]; kidney, 48 h p.i., n = 6, read-out: Kidney uptake): 21.5 ± 7.01 %ID/g
tissue uptake at 4 h ([1]; large intestines, 4 h p.i., n = 4, read-out: Lg. Intestines uptake): 5.49 ± 0.47 %ID/g
tissue uptake at 24 h ([1]; large intestines, 24 h p.i., n = 4, read-out: Lg. Intestines uptake): 5.21 ± 0.82 %ID/g
tissue uptake at 48 h ([1]; large intestines, 48 h p.i., n = 6, read-out: Lg. Intestines uptake): 2.78 ± 1.08 %ID/g
tissue uptake at 4 h ([1]; liver, 4 h p.i., n = 4, read-out: Liver uptake): 1.51 ± 0.29 %ID/g
tissue uptake at 24 h ([1]; liver, 24 h p.i., n = 4, read-out: Liver uptake): 1.95 ± 0.33 %ID/g
tissue uptake at 48 h ([1]; liver, 48 h p.i., n = 6, read-out: Liver uptake): 1.8 ± 0.3 %ID/g
tissue uptake at 4 h ([1]; lung, 4 h p.i., n = 4, read-out: Lung uptake): 2.44 ± 0.3 %ID/g
tissue uptake at 24 h ([1]; lung, 24 h p.i., n = 4, read-out: Lung uptake): 2.3 ± 0.04 %ID/g
tissue uptake at 48 h ([1]; lung, 48 h p.i., n = 6, read-out: Lung uptake): 1.67 ± 0.42 %ID/g
tissue uptake at 4 h ([1]; muscle, 4 h p.i., n = 4, read-out: Muscle uptake): 0.8 ± 0.09 %ID/g
tissue uptake at 24 h ([1]; muscle, 24 h p.i., n = 4, read-out: Muscle uptake): 0.68 ± 0.06 %ID/g
tissue uptake at 48 h ([1]; muscle, 48 h p.i., n = 6, read-out: Muscle uptake): 0.44 ± 0.09 %ID/g
tissue uptake at 4 h ([1]; pancreas, 4 h p.i., n = 4, read-out: Pancreas uptake): 0.32 ± 0.09 %ID/g
tissue uptake at 24 h ([1]; pancreas, 24 h p.i., n = 4, read-out: Pancreas uptake): 0.46 ± 0.04 %ID/g
tissue uptake at 48 h ([1]; pancreas, 48 h p.i., n = 6, read-out: Pancreas uptake): 0.47 ± 0.06 %ID/g
tissue uptake at 4 h ([1]; skin, 4 h p.i., n = 4, read-out: Skin uptake): 1.92 ± 0.5 %ID/g
tissue uptake at 24 h ([1]; skin, 24 h p.i., n = 4, read-out: Skin uptake): 1.41 ± 0.25 %ID/g
tissue uptake at 48 h ([1]; skin, 48 h p.i., n = 6, read-out: Skin uptake): 0.79 ± 0.19 %ID/g
tissue uptake at 4 h ([1]; small intestines, 4 h p.i., n = 4, read-out: Sm. Intestines uptake): 3.98 ± 0.54 %ID/g
tissue uptake at 24 h ([1]; small intestines, 24 h p.i., n = 4, read-out: Sm. Intestines uptake): 2.85 ± 0.31 %ID/g
tissue uptake at 48 h ([1]; small intestines, 48 h p.i., n = 6, read-out: Sm. Intestines uptake): 1.5 ± 0.23 %ID/g
tissue uptake at 4 h ([1]; spleen, 4 h p.i., n = 4, read-out: Spleen uptake): 0.19 ± 0.02 %ID/g
tissue uptake at 24 h ([1]; spleen, 24 h p.i., n = 4, read-out: Spleen uptake): 0.52 ± 0.09 %ID/g
tissue uptake at 48 h ([1]; spleen, 48 h p.i., n = 6, read-out: Spleen uptake): 0.43 ± 0.08 %ID/g
tissue uptake at 4 h ([1]; stomach, 4 h p.i., n = 4, read-out: Stomach uptake): 8.73 ± 0.66 %ID/g
tissue uptake at 24 h ([1]; stomach, 24 h p.i., n = 4, read-out: Stomach uptake): 5.94 ± 0.9 %ID/g
tissue uptake at 48 h ([1]; stomach, 48 h p.i., n = 6, read-out: Stomach uptake): 2.78 ± 0.79 %ID/g
excreta dose per gram or mL at 4 h ([1]; urine, 4 h p.i., n = 4): 15.3 ± 1.2 %ID/g
excreta dose per gram or mL at 24 h ([1]; urine, 24 h p.i., n = 4): 4.81 ± 0.84 %ID/g
excreta dose per gram or mL at 48 h ([1]; urine, 48 h p.i., n = 5): 2.04 ± 0.97 %ID/g
remaining at 1 h ([2]; 1 h): 89%
remaining at 4 h ([2]; 4 h): 49%
remaining at 24 h ([2]; 24 h): 3%
